Non-standard residues stand in square brackets, D forms with d. No end group written: not given here. *: point of attachment. Palmitoyl = CCCCCCCCCCCCCCCC(=O)*; Aib = CC(C)(N)C(=O)O
B1: Peptide 15 (peptide)
peptide: KHSQETFTSDYSKYLDSRRAQDFVQWLMNT
modifications: not fully specified; amidated unless FIG. 1 shows OH; lactam, D-residues, Orn/Dab only as drawn in FIG. 1
B2: Peptide 14 (peptide)
peptide: B1 peptide
modifications: not fully specified; amidated unless FIG. 1 shows OH; lactam, D-residues, Orn/Dab only as drawn in FIG. 1

Target: T1, glucagon receptor (human, UniProt P47871 26-477)
T1 sequence (P47871 26-477): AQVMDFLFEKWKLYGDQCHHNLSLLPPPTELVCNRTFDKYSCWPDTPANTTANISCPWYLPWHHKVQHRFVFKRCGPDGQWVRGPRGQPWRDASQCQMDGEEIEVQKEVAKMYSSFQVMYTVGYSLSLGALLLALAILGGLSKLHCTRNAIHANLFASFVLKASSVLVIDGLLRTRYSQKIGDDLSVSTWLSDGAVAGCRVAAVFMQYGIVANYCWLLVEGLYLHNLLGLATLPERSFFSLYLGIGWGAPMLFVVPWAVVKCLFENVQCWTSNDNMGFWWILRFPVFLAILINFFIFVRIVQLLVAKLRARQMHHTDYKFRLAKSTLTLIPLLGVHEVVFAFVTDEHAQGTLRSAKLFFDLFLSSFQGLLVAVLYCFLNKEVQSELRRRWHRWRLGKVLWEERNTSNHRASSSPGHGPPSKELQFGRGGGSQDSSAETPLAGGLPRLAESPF
Assay: cell-based or functional assay

Binder | % Relative Activity vs native glucagon [%] | EC50 (cAMP luciferase reporter) [nM]
HSQGTFTSDKSKYLDEQAAKEFICWLLDT (also: DPP-IV-resistant residue at position 1 or 2, not given here) [Glucagon Analog 57] | 1 | 4.8

Target: T1, glucagon receptor
Assay: cell-based or functional assay
Remark: another data set of the same source

Binder | % Relative Activity vs native glucagon [%] | EC50 (cAMP luciferase reporter) [nM]
HSQGTFTSDYSKYLDEKRAKEFVCWLLDGGPSSGAPPPS-NH2 (not fully specified; also: further groups not given here) [Glucagon Analog 61] | 88 | 0.017
HSQGTFTSDYSKYLDERRAKEFVQWLMNT-NH2 (not fully specified; also: further groups not given here) [Glucagon Analog 68] | 104 | 0.068
HSQGTFTSDYSKYLDEKRAKEFVQWLMNT-NH2 (not fully specified; also: further groups not given here) [Glucagon Analog 65] | 264 | 0.053
HSQGTFTSDYSKYLDERRAKDFVQWLMNT-NH2 (not fully specified; also: further groups not given here) [Glucagon Analog 67] | 93 | 0.077

Target: T2, GLP-1 receptor (human, UniProt P43220 24-463)
Assay: cell-based or functional assay

Binder | EC50 (cAMP luciferase reporter) [nM] | % Relative Activity vs native GLP-1 [%]
HSQGTFTSDYSKYLDSKRAQEFVQWLMNT-NH2 (also: non-coded residues and acylation only) [Glucagon Analog 66] | 0.13 | –
HSQGTFTSDYSKYLDEKRAKEFVCWLLDGGPSSGAPPPS-NH2 (not fully specified; also: further groups not given here) [Glucagon Analog 61] | 0.096 | 39
HSQGTFTSDYSKYLDERRAKEFVQWLMNT-NH2 (not fully specified; also: further groups not given here) [Glucagon Analog 68] | 0.075 | 44
HSQGTFTSDYSKYLDEKRAKEFVQWLMNT-NH2 (not fully specified; also: further groups not given here) [Glucagon Analog 65] | 0.036 | 64
HSQGTFTSDYSKYLDERRAKDFVQWLMNT-NH2 (not fully specified; also: further groups not given here) [Glucagon Analog 67] | 0.071 | 47

Target: T1, glucagon receptor
Assay: cell-based or functional assay
Remark: another data set of the same source

Binder | EC50 (cAMP luciferase reporter) [nM] | percent in parentheses (not explained) [%]
HSQGTFTSDYSKYLDEQAVRLFICWLLDGGPSSGAPPPS-NH2 (not fully specified; also: further groups not given here) [Glucagon Analog 84] | 0.132 | 14.4
HSQGTFTSDK(Palmitoyl)SKYLDEEAVRLFIEWLMNT-NH2 [Glucagon Analog 39] | 2.54 | –
HSQGTFTSDYSKYLDEEAVRLFICWLMNT-NH2 (also: DPP-IV-resistant residue at position 1 or 2) [Glucagon Analog 34] | 0.404 | –
HSQGTFTSDKSKYLDEEAVRLFIEWLMNT-NH2 (also: Lys-γGlu-C16 (K(B)) at unstated position) [Glucagon Analog 37] | 0.119 | –
HSQGTFTSDYSKYLD[Aib]KAVRLFICWLLDT-NH2 [Glucagon Analog 86] | 0.035 | 43
HSQGTFTSDYSKYLDEEAVRLFICWLMNT-NH2 (also: DPP-IV-resistant residue at position 1 or 2) [Glucagon Analog 32] | 0.22 | –
HSQGTFTSDKSKYLDEQAVRLFIC(PEG 40 kDa)WLLDT-NH2 (also: acylated amino acid at position 10, acyl group not given here) [Glucagon Analog 85] | 0.107 | 16
HSQGTFTSDYSKYLDEQAVRLFICWLLDT-NH2 (not fully specified; also: further groups not given here) [Glucagon Analog 87] | 0.021 | 71

Target: T2, GLP-1 receptor
Assay: cell-based or functional assay
Remark: another data set of the same source

Binder | EC50 (cAMP luciferase reporter) [nM] | percent in parentheses (not explained) [%]
HSQGTFTSDYSKYLDEQAVRLFICWLLDGGPSSGAPPPS-NH2 (not fully specified; also: further groups not given here) [Glucagon Analog 84] | 0.006 | 600
HSQGTFTSDK(Palmitoyl)SKYLDEEAVRLFIEWLMNT-NH2 [Glucagon Analog 39] | 0.033 | –
HSQGTFTSDYSKYLDEEAVRLFICWLMNT-NH2 (also: DPP-IV-resistant residue at position 1 or 2) [Glucagon Analog 34] | 0.018 | –
HSQGTFTSDKSKYLDEEAVRLFIEWLMNT-NH2 (also: Lys-γGlu-C16 (K(B)) at unstated position) [Glucagon Analog 37] | 0.011 | –
HSQGTFTSDYSKYLD[Aib]KAVRLFICWLLDT-NH2 [Glucagon Analog 86] | 0.035 | 106
HSQGTFTSDYSKYLDEEAVRLFICWLMNT-NH2 (also: DPP-IV-resistant residue at position 1 or 2) [Glucagon Analog 32] | 0.007 | –
HSQGTFTSDKSKYLDEQAVRLFIC(PEG 40 kDa)WLLDT-NH2 (also: acylated amino acid at position 10, acyl group not given here) [Glucagon Analog 85] | 0.013 | 284
HSQGTFTSDYSKYLDEQAVRLFICWLLDT-NH2 (not fully specified; also: further groups not given here) [Glucagon Analog 87] | 0.013 | 284

Target: T2, GLP-1 receptor
Assay: cell-based or functional assay
Remark: another data set of the same source

Binder | EC50 (cAMP luciferase reporter) [nM]
HSQKTFTEDYSKYLDSRRAQDFVQWLMNT (not fully specified; also: further groups not given here) [Peptide 16] | 121
B1 | 73.4
HSQGTFTSDYSKYLDSKRAQEFVQWLMNT-NH2 [Peptide 1] | 0.13
B2 | 33

Target: T1, glucagon receptor
Assay: cell-based or functional assay
Remark: another data set of the same source

Binder | % Relative Activity vs native glucagon [%] | EC50 (cAMP luciferase reporter) [nM]
HSQGTFTSDKSKYLDEQAAKEFICWLLDE-NH2 (not fully specified; also: further groups not given here) [Glucagon Analog 82] | 121 | 14000
HAQGTFTSDKSKYLDERAAQDFVC(PEG 40 kDa)WLLDT-NH2 (also: other non-coded residues as, not given here) [Glucagon Analog 81] | 51.4 | 37000
HSQGTFTSDKSKYLDEQAAKEFICWLLDTE-NH2 (not fully specified; also: further groups not given here) [Glucagon Analog 83] | 61 | 28000
HSQGTFTSDKSKYLDEQAAKEFIC(PEG 40 kDa)WLLDTGG-NH2 (not fully specified; also: further groups not given here) [Glucagon Analog 78] | 44 | 140000
HSQGTFTSDKSKYLDEQAAKEFIC(PEG 40 kDa)WLLDT-NH2 (not fully specified; also: further groups not given here) [Glucagon Analog 79] | 26 | 240000

Target: T2, GLP-1 receptor
Assay: cell-based or functional assay
Remark: another data set of the same source

Binder | % Relative Activity vs native GLP-1 [%] | EC50 (cAMP luciferase reporter) [nM]
HSQGTFTSDKSKYLDEQAAKEFICWLLDE-NH2 (not fully specified; also: further groups not given here) [Glucagon Analog 82] | 345 | 0.02
HAQGTFTSDKSKYLDERAAQDFVC(PEG 40 kDa)WLLDT-NH2 (also: other non-coded residues as, not given here) [Glucagon Analog 81] | 300 | 0.012
HSQGTFTSDKSKYLDEQAAKEFICWLLDTE-NH2 (not fully specified; also: further groups not given here) [Glucagon Analog 83] | 288 | 0.024
HSQGTFTSDKSKYLDEQAAKEFIC(PEG 40 kDa)WLLDTGG-NH2 (not fully specified; also: further groups not given here) [Glucagon Analog 78] | 196 | 0.026
HSQGTFTSDKSKYLDEQAAKEFIC(PEG 40 kDa)WLLDT-NH2 (not fully specified; also: further groups not given here) [Glucagon Analog 79] | 41 | 0.125
